Measurements from patent US7897732B2, “Antibodies to heparin-binding growth factor (HBGF) polypeptides” (Childrens Hospital Research Foundation, priority 1997, dated 2011).

What was measured:
[1] = Heparin affinity chromatography (NaCl required for elution); assay type: binding
Procedure: Fractions that contained HBGF activity (fractions 16-19 collected after the cation exchange chromatography and heparin affinity chromatography) were pooled, diluted, and subjected to a second cycle of heparin affinity FPLC using a TSK heparin 5PW column. To perform the second heparin affinity purification step, biologically active HBGF fractions containing the 0.8 M NaCl eluate from the EconoPac heparin purification step were pooled, diluted 3-fold with 20 mM Tris-HCl (pH 7.4), and clarified by passage through a 0.2-μm filter. The sample was applied at 2 ml/min to a TSK heparin 5PW column (0.8×7.5 cm; TosoHaas, Philadelphia, Pa.), that was washed and eluted as described above, except that CHAPS was omitted from the buffers and fractions of 0.5 ml were collected. […] HBGF polypeptide was again eluted by 0.8 M NaCl (fractions 31-36), but was resolved as two peaks of mitogenic activity which had distinct heparin binding properties. The activity peaks were termed HGBF-0.8-P1 for fractions 31-34 and HGBF-0.8-P2 for fractions 35 and 36. To assess the relative mitogenic capability of HBGFs with IGF-1, EGF, bFGF, and PDGF-AB, DNA synthesis assays on 3T3 cells were performed (Table 4). Biologically active fractions containing the 0.3-0.6 M NaCl eluate from the Bio-Rex column were pooled, diluted 3-fold with 20 mM Tris-HCL (pH 7.4) containing 0.1% CHAPS, passed through a 0.45-μm membrane filter, placed in a siliconized polypropylene vessel, and applied with a peristaltic pump to an EconoPac heparin column (0.7×3.6 cm; Bio-Rad) at 2 ml/min. The heparin column was then washed with 50 ml of 20 mM Tris-HCl buffer, 0.2 M NaCl, 0.1% CHAPS and developed at 1 ml/min with a 40 ml gradient of 0.1-2.0 M NaCl in 20 mM Tris-HCl, 0.1% CHAPS (pH 7.4) using a fast protein liquid chromatography (FPLC) system (Pharmacia Biotech Inc.). Fractions (1 ml) were collected into siliconized tubes during NaCl gradient elution and tested for 3T3 cell mitogenic activity.

Balb/c 3T3 fibroblasts = test: DNA synthesis ([3H]thymidine incorporation) assay in confluent quiescent Balb/c 3T3 cells; assay type: cell-based
Procedure: To assess the relative mitogenic capability of HBGFs with IGF-1, EGF, bFGF, and PDGF-AB, DNA synthesis assays on 3T3 cells were performed (Table 4). Biologically active fractions containing the 0.3-0.6 M NaCl eluate from the Bio-Rex column were pooled, diluted 3-fold with 20 mM Tris-HCL (pH 7.4) containing 0.1% CHAPS, passed through a 0.45-μm membrane filter, placed in a siliconized polypropylene vessel, and applied with a peristaltic pump to an EconoPac heparin column (0.7×3.6 cm; Bio-Rad) at 2 ml/min. The heparin column was then washed with 50 ml of 20 mM Tris-HCl buffer, 0.2 M NaCl, 0.1% CHAPS and developed at 1 ml/min with a 40 ml gradient of 0.1-2.0 M NaCl in 20 mM Tris-HCl, 0.1% CHAPS (pH 7.4) using a fast protein liquid chromatography (FPLC) system (Pharmacia Biotech Inc.). Fractions (1 ml) were collected into siliconized tubes during NaCl gradient elution and tested for 3T3 cell mitogenic activity. Column fractions were tested for their ability to stimulate DNA synthesis as measured by [^3H]thymidine incorporation into the DNA of confluent quiescent Balb/c 3T3 cells grown in 200 μl of Dulbecco's modified Eagle's medium, 10% bovine calf serum in 96-well culture plates as described (Kim, G. Y., et al., Biol. Reprod. 52, 561-571 (1995)). Dose-response curves to purified growth factors from ULF were established by assaying each dose in triplicate, with data computed as mean±S.D. Statistical significance of the effects of 1-100 μg/ml porcine heparin (Sigma) on growth factor activity was determined by Students' t test.

[2] = preparation after C8HPLC (step 1), bioactivity diminished due to acid exposure

Molecule | NaCl required for elution from a heparin affinity column [1] [M] | ED50: concentration of HBGF-0.8 preparation required to give 50% maximal DNA synthesis (Balb/c 3T3 fibroblasts; [2]) [µg/mL] | ED50: concentration of HBGF-0.8 preparation required to give 50% maximal DNA synthesis (Balb/c 3T3 fibroblasts; preparation after TSK-Hep step) [µg/mL] | Heparin affinity as compared with HBGF-0.8-P2 ([1]; TSK heparin 5PW column) | ED50: concentration of HBGF-0.8 preparation required to give 50% maximal DNA synthesis (Balb/c 3T3 fibroblasts; preparation after C8HPLC, step 2, bioactivity diminished due to acid exposure) [µg/mL]
HBGF-0.8-P2: 10-kDa heparin-binding growth factor; truncated porcine CTGF starting at residue 248 (SEQ ID NO: 2 N-terminus) (protein) ENIKKGKKCIRTPKISKPVKFELSGCTSVKTYRAKFCGVCTDGRCCTPHRTTTLPVEFKCPDGEVMKKSMMFIKTCACHYNCPGDNDIFESLYYRKMYGDMA | 0.8 | 0.25 | 0.417 |  | 
HBGF-0.8-P1: 10-kDa heparin-binding growth factor; N-terminally truncated porcine CTGF starting at residue 247 (SEQ ID NO: 1 N-terminus) (protein) EENIKKGKKCIRTPKISKPVKFELSGCTSVKTYRAKFCGVCTDGRCCTPHRTTTLPVEFKCPDGEVMKKSMMFIKTCACHYNCPGDNDIFESLYYRKMYGDMA | 0.8 | 0.25 | 2.23 | lower heparin affinity | 0.025
